Results published in patent US12723100 (CSPC MEGALITH BIOPHARMACEUTICAL, dated 2026).
Positions count from the first letter of the chain named.

How the values were obtained:
[1] = biological target: T1, human Nectin-1 with His tag (ACROBiosystems, catalog number PV1-H5223) (human, UniProt Q15223 31-355, biotinylated in Example 3 (sites not given)); assay: ELISA or Gator binding assay
T1 construct: Bought protein; also called biotinylated human Nectin-1
T1 sequence: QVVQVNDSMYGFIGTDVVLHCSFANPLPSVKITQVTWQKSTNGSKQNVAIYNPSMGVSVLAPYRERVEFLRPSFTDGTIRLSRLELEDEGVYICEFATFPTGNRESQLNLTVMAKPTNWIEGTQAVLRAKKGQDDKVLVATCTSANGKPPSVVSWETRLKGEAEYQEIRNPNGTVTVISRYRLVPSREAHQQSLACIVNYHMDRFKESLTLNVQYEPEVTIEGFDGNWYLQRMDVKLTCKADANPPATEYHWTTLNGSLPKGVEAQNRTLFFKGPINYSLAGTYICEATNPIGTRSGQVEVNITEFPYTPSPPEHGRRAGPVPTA

[2] = biological target: T2, human Nectin 2 (ACROBiosystems, Catalog no: PV2-H52E2) (human, UniProt Q92692 32-360); assay: ELISA or Gator binding assay
T2 construct: extracellular domain
T2 sequence (looked up): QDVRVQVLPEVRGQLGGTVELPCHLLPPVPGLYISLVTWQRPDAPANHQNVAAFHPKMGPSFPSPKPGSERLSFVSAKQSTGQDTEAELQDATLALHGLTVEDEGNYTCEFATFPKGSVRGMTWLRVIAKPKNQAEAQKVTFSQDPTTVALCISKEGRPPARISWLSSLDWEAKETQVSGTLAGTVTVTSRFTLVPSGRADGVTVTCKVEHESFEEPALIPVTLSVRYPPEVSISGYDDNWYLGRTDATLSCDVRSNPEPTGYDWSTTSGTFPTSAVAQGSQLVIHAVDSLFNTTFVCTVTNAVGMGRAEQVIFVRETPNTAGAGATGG

[3] = biological target: T3, human recombinant Nectin-4 protein (extracellular domain) (human, UniProt Q96NY8 32-349); assay: ELISA, recombinant human Nectin-4 coated on plate
T3 construct: also called recombinant Nectin-4 (extracellular domain); human Nectin-4 recombinant protein
T3 sequence: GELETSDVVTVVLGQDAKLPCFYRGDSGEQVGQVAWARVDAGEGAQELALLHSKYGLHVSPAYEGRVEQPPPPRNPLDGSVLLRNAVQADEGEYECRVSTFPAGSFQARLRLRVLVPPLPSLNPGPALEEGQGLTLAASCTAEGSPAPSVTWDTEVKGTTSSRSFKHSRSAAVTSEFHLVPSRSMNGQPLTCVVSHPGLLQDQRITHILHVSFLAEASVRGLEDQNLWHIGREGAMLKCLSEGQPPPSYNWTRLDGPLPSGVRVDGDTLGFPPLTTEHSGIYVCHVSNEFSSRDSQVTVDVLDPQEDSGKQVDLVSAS
Procedure: The binding specificity of the disclosed anti-Nectin-4 antibodies was assessed by ELISA. Briefly, human recombinant Nectin-4 protein was directly coated to ELISA plates. Purified antibodies were then added to the plates followed by detection by goat-anti-mouse IgG-HRP. After addition of ABTS substrate, ELISA plates were read using an ELISA plate reader (Bioteck). The controls depicted in FIG. 2: PC1 refers to a reference antibody (known to be a Nectin-4 specific recombinant antibody, made by Novarock Biotherapeutics, lot no: 03042020KD); the negative control is a human IgG1 (Dendritics, catalog no: DDXCH01P-100, lot no: DDXCH01-028).
The ELISA binding EC50 values of the eight anti-Nectin-4 antibodies, N4_mAb 1 to N4_mAb 8 and the positive control antibody were listed in Table 3 below.

[4] = biological target: T4, full-length human Nectin-4 on cells (human, UniProt Q96NY8 32-510); assay: flow cytometry competition on CHO-Nectin-4 cells; competitor biotinylated human TIGIT
T4 construct: the cell is named under assay; also called CHO-Nectin-4 cells; Nectin-4-CHO
T4 sequence: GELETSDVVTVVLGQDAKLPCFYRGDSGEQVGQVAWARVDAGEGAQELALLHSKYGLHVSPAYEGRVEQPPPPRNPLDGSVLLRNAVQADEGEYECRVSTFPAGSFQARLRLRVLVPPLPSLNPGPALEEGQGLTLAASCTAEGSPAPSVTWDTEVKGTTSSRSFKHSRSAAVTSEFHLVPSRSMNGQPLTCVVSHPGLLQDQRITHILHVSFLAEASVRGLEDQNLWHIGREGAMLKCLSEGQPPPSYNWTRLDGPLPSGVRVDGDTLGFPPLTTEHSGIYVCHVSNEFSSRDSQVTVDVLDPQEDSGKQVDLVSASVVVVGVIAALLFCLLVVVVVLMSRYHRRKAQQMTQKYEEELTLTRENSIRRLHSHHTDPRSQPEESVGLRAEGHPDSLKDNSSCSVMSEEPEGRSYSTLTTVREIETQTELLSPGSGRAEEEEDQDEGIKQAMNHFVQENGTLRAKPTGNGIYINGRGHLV
Procedure: The ability of disclosed Nectin4-specific antibodies to block TIGIT binding to CHO-Nectin-4 cells was assessed by FACS. Briefly, CHO-Nectin-4 cells were incubated with dilutions of the disclosed purified recombinant antibodies. Then, biotinylated human TIGIT protein (SinoBiologic, catalog: 10917-H08H-B, lot: LC13AP0902) was added to the plate. After 30-minute incubation, cells were washed, followed by adding Streptavidin Alexa 647 (1:1000) to the samples. After a 30 minute incubation, the samples were analyzed on a flow cytometry instrument (Intellicyte, IQue plus, Sartorius) for TIGIT blocking activity. The positive control antibody used in this blocking assay is PC2, a Nectin-4 antibody with known blocking activity.

B1: N4_mAb 2 (antibody, human IgG1, V domains shown)
VH: QVQLKQSGPNLVQPSQSLSITCTVSGFSLTTYGAHWVRQSPGKGLEWLGVIWRGGSTDYNAAFMSRLSITKDNSKSQVFFKMNSLQADDTAIYYCAKIGYDGYAMDNWGQGTSVTVSS
VL: DFQVTQSPASLSASVGETVTITCRTSENIHNYLAWYQQKQGKSPQLLVYNAKTLADGVPSRFSGSGSGTQYSLKINSLQPEDFGTYYCQHFWSSPWTFGGGTKLEIK
notes: Tested as chimera (human IgG1/kappa constants); not shown: human IgG1 constant region (Uniprot P01857); human Kappa light chain constant region (UniProt P01834)
Does B1 bind [1]?
Result: no binding

Does B1 bind [2]?
Result: no binding

What about the EC50 [3] of the same binder?
Its EC50 is 120 pM.

What about the EC50 [4] of the same binder?
Its EC50 is 3040 pM.

B2: N4_mAb 3 (antibody, human IgG1, V domains shown)
VH: EVQLQQSGAELVKPGASVKLSCTVSGFNIKDTYMHWVKQRPEQGLEWIGRIDPANGNTKYDPKFQGKATIIADKASNTAYLQLSSLTSEDAAVYYCAHYYGSSYFAMDCWGQGTSVTVSS
VL: DIVMTQSHKFMSTSVGDRVSITCKASQDVSTAVAWYQQKPGQSPKLLIYWASTRHTGVPDRFTGSGSGTDYTLTISSVQTEDLALYYCQQHYSTPLTFGAGTKLELK
notes: as for B1
What does the source list for B2?
binding result [1]: no binding; binding result [2]: no binding; EC50 [3]: 1510 pM; EC50 [4]: 940 pM

B3: N4_mAb 1 (antibody, human IgG1, V domains shown)
VH: QVQLKQSGPGLVQPSQSLSITCTVSGFSLTNYGVNWVRQPPGKGLEWLGVIWSGGSTDYNAAFISRLSISKDISKSQVFFKMNSLQADDTAKYYCAREGYDGYAMDYWGQGTSVTVSS
VL: DIQMTQSPASLSVSVGETVTITCRASENIFSSLAWYQQKQGKSPQLLVYGATNLADGVPSRFSGSGSGTQYSLKINSLQSEDFGTYWCQHFWGNPWTFGGGTKLEIK
notes: Tested as chimera (murine variable regions, human IgG1/kappa constants); not shown: human IgG1 constant region (Uniprot P01857); human Kappa light chain constant region (UniProt P01834)
Does B3 bind [1]?
Result: no binding

Does B3 bind [2]?
Result: no binding

What about the EC50 [3] of the same binder?
The EC50 was 140 pM.

And the EC50 [4]?
The EC50 was 910 pM.

B4: N4_mAb 6 (antibody, human IgG1, V domains shown)
VH: QVQLQQSGPELVKPGASVRISCKASGYTFTTYYIHWVKQRPGQGLEWIGWIYPGNVNTKYTENFKDKATLTADKSSSTAYMQLSSLTSEDSAVYFCARGLYYFDFWGQGTTLTVSS
VL: SIVMTQTPKFLLVSAGDRVTITCKASQSVNNDVAWYQQKPGQSPKLLIYYASNRDTGVPDRFTGSGFGTDFTFTISSVQAEDLAVYFCQQDYSSPYTFGGGTKLEIK
notes: as for B3
Does B4 bind [1]?
Result: no binding

Does B4 bind [2]?
Result: no binding

And the EC50 [3]?
The EC50 was 30 pM.

What about the EC50 [4] of the same binder?
The EC50 was 310 pM.

B5: N4_mAb 7 (antibody, human IgG1, V domains shown)
VH: QVQLQQSGPELVKPGASVKMSCKASGYTFTTYYIHWVKQRPGQGLEWIGWIYPGNAGIKSNEKFKGKTTLTADKSSSTAYMLLSSLTSEDSAIYFCARGVYFFDYWGQGTTLTVSS
VL: B4 VL with A34S, Y36F, D55Y, T63S, F67Y, S76T, S77T
notes: as for B3
Does B5 bind [1]?
Result: no binding

Does B5 bind [2]?
Result: no binding

What about the EC50 [3] of the same binder?
The EC50 was 40 pM.

And the EC50 [4]?
The EC50 was 750 pM.

B6: N4_mAb 8 (antibody, human IgG1, V domains shown)
VH: B4 VH with E10V, T31S, T61N, K65R, A79S, L100I, F105Y
VL: B4 VL with S1I, Q38E, F67Y, S77T, Q89H, Y96F, G100S
notes: as for B3
What does the source list for B6?
binding result [1]: no binding; binding result [2]: no binding; EC50 [3]: 140 pM; EC50 [4]: 1370 pM

B7: N4_mAb 4 (antibody, human IgG1, V domains shown)
VH: DVQLQESGPDLVKPSQSLSLTCTVTGYSITSAYNWHWIRQFPGNKLEWMGYIHYSGRTNYNPSLKSRISITRDTSKNQFFLQLNSLTTEDTATYYCARWITTATGWYLDVWGAGTTVTVSS
VL: not shown
notes: as for B1
Does B7 bind [1]?
Result: no binding

Does B7 bind [2]?
Result: no binding

And the EC50 [3]?
The EC50 was 1120 pM.

B8: N4_mAb 5 (antibody, human IgG1, V domains shown)
VH: EVQLQQSGPDLVKPGASVKISCKASGYSFTGHYMHWVKQSHGKSLEWIGRVNPNNGGSSYNQKFKDKAILTVDKSSTTAYMELRSLTSEDSAVYYCARDPLGGSYGFAYWGQGTLVTVSA
VL: DIVLTQSPASLAVSLGQRATISCRASQSVTTSSYSYMHWYQQKPGQPPKLLIKYASNLESGVPARFSGSGSGTDFTLNIHPVEEEDTATYYCQHSWEIPYTFGGGTKLEMK
notes: as for B1
Does B8 bind [1]?
Result: no binding

Does B8 bind [2]?
Result: no binding

And the EC50 [3]?
Its EC50 is 130 pM.

And the EC50 [4]?
Its EC50 is 3110 pM.
